“And” between values parts separate entries of the source, which are not always exact repeats. Equal values may be shown once.
Biological target: the molecule itself
Test: cross-linking; purified FlgD with EDC and Sulfo-NHS (molar ratio 1 : 2000) or DTSSP (1 : 50), products on SDS-PAGE

B1: S. enterica FlgD (flagellar hook cap protein, 232 amino acid residues) (natural protein)
chain: MSIAVNMNDPTNTGVKTTTGSGSMTGSNAADLQSSFLTLLVAQLKNQDPTNPLQNNELTTQLAQISTVSGIEKLNTTLGAISGQIDNSQSLQATTLIGHGVMVPGTTILAGKGAEEGAVTSTTPFGVELQQPADKVTATITDKDGRVVRTLEIGELRAGVHTFTWDGKQTDGTTVPNGSYNIAITASNGGTQLVAQPLQFALVQGVTKGSNGNLLDLGTYGTTTLDEVRQII
notes: Separates on gel filtration into a pentamer and a monomer fraction; A seleno-methionine form (E. coli B834(DE3)) was used for phasing only; also called full-length FlgD; source: E. coli BL21(DE3)pLysS, purified (Q-Sepharose, Butyl-Sepharose, Superdex 200)
For B1, the “stoichiometry N” value was 5 and 10.

— publication PMC8595650, “Structure of the bacterial flagellar hook cap provides insights into a hook assembly mechanism” (Communications Biology, 2021)
